Measured values as given in US20250108100A1, “C-TERMINAL FRAGMENT OF APOLIPOPROTEIN E AND APPLICATION THEREOF IN INHIBITING y-SECRETASE ACTIVITY” (SYNPHATEC (SHANGHAI) BIOPHARMACEUTICAL TECHNOLOGY CO., LTD., priority 2022, published 2025).

B1: CT NA1: SEQ ID NO: 13; ApoE CT with 1 original ApoE residue added to the N-terminus (protein)
chain: RARMEEMGSRTRDRLDEVKEQVAEVRAKLEEQAQQIRLQAEAFQARLKSWFEPLVEDMQRQWAGLVEKVQAAVGTSAAPVPSDNH
B2: CT ND3CD13: SEQ ID NO: 28; ApoE CT minus 3 N-terminal and 13 C-terminal residues (protein)
chain: EEMGSRTRDRLDEVKEQVAEVRAKLEEQAQQIRLQAEAFQARLKSWFEPLVEDMQRQWAGLVEKVQAA
B3: CT NA2: SEQ ID NO: 14; ApoE CT with 2 original ApoE residues added to the N-terminus (protein)
chain: LRARMEEMGSRTRDRLDEVKEQVAEVRAKLEEQAQQIRLQAEAFQARLKSWFEPLVEDMQRQWAGLVEKVQAAVGTSAAPVPSDNH
B4: CT ND3CD14: SEQ ID NO: 29; ApoE CT minus 3 N-terminal and 14 C-terminal residues (protein)
chain: EEMGSRTRDRLDEVKEQVAEVRAKLEEQAQQIRLQAEAFQARLKSWFEPLVEDMQRQWAGLVEKVQA
B5: CT ND2: SEQ ID NO: 19; ApoE CT with 2 N-terminal amino acids deleted (protein)
chain: MEEMGSRTRDRLDEVKEQVAEVRAKLEEQAQQIRLQAEAFQARLKSWFEPLVEDMQRQWAGLVEKVQAAVGTSAAPVPSDNH
B6: CT ND3CD12: SEQ ID NO: 27; ApoE CT minus 3 N-terminal and 12 C-terminal residues (protein)
chain: EEMGSRTRDRLDEVKEQVAEVRAKLEEQAQQIRLQAEAFQARLKSWFEPLVEDMQRQWAGLVEKVQAAV
B7: CT ND4: SEQ ID NO: 21; ApoE CT with 4 N-terminal amino acids deleted (protein)
chain: EMGSRTRDRLDEVKEQVAEVRAKLEEQAQQIRLQAEAFQARLKSWFEPLVEDMQRQWAGLVEKVQAAVGTSAAPVPSDNH
B8: CT NA4: SEQ ID NO: 16; ApoE CT with 4 original ApoE residues added to the N-terminus (protein)
chain: ERLRARMEEMGSRTRDRLDEVKEQVAEVRAKLEEQAQQIRLQAEAFQARLKSWFEPLVEDMQRQWAGLVEKVQAAVGTSAAPVPSDNH
B9: CT ND3CD10: SEQ ID NO: 25; ApoE CT minus 3 N-terminal and 10 C-terminal residues (protein)
chain: EEMGSRTRDRLDEVKEQVAEVRAKLEEQAQQIRLQAEAFQARLKSWFEPLVEDMQRQWAGLVEKVQAAVGT
B10: CT ND3CD15: SEQ ID NO: 30; ApoE CT minus 3 N-terminal and 15 C-terminal residues (protein)
chain: EEMGSRTRDRLDEVKEQVAEVRAKLEEQAQQIRLQAEAFQARLKSWFEPLVEDMQRQWAGLVEKVQ
B11: CT CD5: SEQ ID NO: 23; ApoE CT with 5 C-terminal amino acids deleted (protein)
chain: ARMEEMGSRTRDRLDEVKEQVAEVRAKLEEQAQQIRLQAEAFQARLKSWFEPLVEDMQRQWAGLVEKVQAAVGTSAAPV
B12: CT ND5: SEQ ID NO: 22; ApoE CT with 5 N-terminal amino acids deleted (protein)
chain: MGSRTRDRLDEVKEQVAEVRAKLEEQAQQIRLQAEAFQARLKSWFEPLVEDMQRQWAGLVEKVQAAVGTSAAPVPSDNH
B13: CT ND3: SEQ ID NO: 20; ApoE CT with 3 N-terminal amino acids deleted (protein)
chain: EEMGSRTRDRLDEVKEQVAEVRAKLEEQAQQIRLQAEAFQARLKSWFEPLVEDMQRQWAGLVEKVQAAVGTSAAPVPSDNH
B14: CT ND1: SEQ ID NO: 18; ApoE CT with 1 N-terminal amino acid deleted (protein)
chain: RMEEMGSRTRDRLDEVKEQVAEVRAKLEEQAQQIRLQAEAFQARLKSWFEPLVEDMQRQWAGLVEKVQAAVGTSAAPVPSDNH
B15: CT CD10: SEQ ID NO: 24; ApoE CT with 10 C-terminal amino acids deleted (protein)
chain: ARMEEMGSRTRDRLDEVKEQVAEVRAKLEEQAQQIRLQAEAFQARLKSWFEPLVEDMQRQWAGLVEKVQAAVGT
B16: CT NA3: SEQ ID NO: 15; ApoE CT with 3 original ApoE residues added to the N-terminus (protein)
chain: RLRARMEEMGSRTRDRLDEVKEQVAEVRAKLEEQAQQIRLQAEAFQARLKSWFEPLVEDMQRQWAGLVEKVQAAVGTSAAPVPSDNH
B17: CT NA5: SEQ ID NO: 17; ApoE CT with 5 original ApoE residues added to the N-terminus (protein)
chain: GERLRARMEEMGSRTRDRLDEVKEQVAEVRAKLEEQAQQIRLQAEAFQARLKSWFEPLVEDMQRQWAGLVEKVQAAVGTSAAPVPSDNH
B18: CT ND3CD11: SEQ ID NO: 26; ApoE CT minus 3 N-terminal and 11 C-terminal residues (protein)
chain: EEMGSRTRDRLDEVKEQVAEVRAKLEEQAQQIRLQAEAFQARLKSWFEPLVEDMQRQWAGLVEKVQAAVG
B19: CT ND3CD20: SEQ ID NO: 31; ApoE CT minus 3 N-terminal and 20 C-terminal residues (protein)
chain: EEMGSRTRDRLDEVKEQVAEVRAKLEEQAQQIRLQAEAFQARLKSWFEPLVEDMQRQWAGL

Test system: human APP and β-secretase co-expressed in HEK 293T cells
Test: HEK 293T cells co-expressing APP and β-secretase (BACE1): Aβ ELISA and β-CTF Western blot
Assay type: cell-based
Details: APP and β-secretase co-expressed, ELISA, vs GFP control
Procedure: The experiment was performed according to the standard procedure in the ELISA analysis kit of Invitrogen Company. • a) The target protein was expressed in HEK 293T cell line. Cells were subcultured one day before transfection, and transfection was performed when the degree of cell adhesion reached 70%-80%. The transfection reagent was lipofectamine2000 (ThermoFisher). • b) 4-6 hours post transfection, medium were replaced with fresh cell culture medium. • c) 36-48 hours post transfection, the cell culture medium was collected, and then the ELISA process was performed or the cell culture medium was frozen in a −80° C. refrigerator. • d) 50 μl of standard samples and experimental samples were added to each well of the 96-well plate. • e) 50 μl of human-derived Aβ40 or Aβ42 or mouse-derived Aβ40 detection antibody was added to each well of the 96-well plate. • f) The above samples were shaken gently and placed at room temperature for 3 hours. • g) The liquid in the well were removed, and the plate was washed 4 times with 1× wash buffer. • h) 100 μl of the buffer containing 1× anti-Rabbit IgG HRP was added. • i) The plate was shaken gently and placed at room temperature for […]. • j) The liquid in the well were removed, and the well was washed 4 times with 1× wash buffer. • k) 100 μl of Stabilized Chromogen was added to each well, and the plate was placed in the dark for 30 minutes at room temperature. • l) 100 μl of Stop Solution was added to each well. • m) The absorbance at 450 nm was measured with a microplate reader. 2.4 qRT-PCR
48 hours after transfection of HEK 293T cells and N2A cells, or 4.5 days after lentivirus infection of neurons, media and lysates were collected. Aβ40 and Aβ42 in the culture medium and cell lysates were detected by an Aβ ELISA kit as indicated in the protocol. (Invitrogen Technology; KHB3481 for human Aβ40, KHB3441 for human Aβ42 and KMB3481 for mouse Aβ40).
Data were analyzed by GraphPad Prism software (v6) using unpaired, paired, or one-sample t-tests. Aβ40 and Aβ42 levels were normalized to the corresponding GFP controls. α-CTF levels were normalized to FL-APP and corresponding GFP controls. All data are represented as mean±SEM. Statistical significance was defined as p<0.05. One, two, three and four stars (*) in the graph indicate p-values <0.05, <0.01, <0.001 and <0.0001, respectively.

Molecule	production of Aβ40
B1	still reduces the production of Aβ40
B2	can still significantly reduce Aβ40
B3	completely lost the ability to reduce Aβ
B4	can still significantly reduce Aβ40
B5	can still reduce Aβ40
B6	can still significantly reduce Aβ40
B7	can still reduce Aβ40
B8	completely lost the ability to reduce Aβ
B9	can still significantly reduce Aβ40
B10	can still significantly reduce Aβ40
B11	still reduce the production of Aβ
B12	can still reduce Aβ40
B13	can still reduce Aβ40
B14	can still reduce Aβ40
B15	still reduce the production of Aβ
B16	completely lost the ability to reduce Aβ
B17	completely lost the ability to reduce Aβ
B18	can still significantly reduce Aβ40
B19	can still significantly reduce Aβ40
